Source: PMC9482650, “Quantitative fragmentomics allow affinity mapping of interactomes” (Nature Communications, 2022)

What was measured:
Assay in all cases: holdup assay
Parameters in all cases: key: below the threshold = too weak to quantify, mostly under pKd 3.1 to 4
GRIP1_2, Q9Y3R0 = molecular target: T1, GRIP1_2, Q9Y3R0
T1 sequence (Q9Y3R0 145-248, limits assumed, looked up): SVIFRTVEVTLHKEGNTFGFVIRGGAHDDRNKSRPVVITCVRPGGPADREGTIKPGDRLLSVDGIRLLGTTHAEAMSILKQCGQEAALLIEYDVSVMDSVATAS

MAGI2_5, Q86UL8 = molecular target: MAGI2_5, Q86UL8
Chain of MAGI2_5, Q86UL8 (Q86UL8 915-1017): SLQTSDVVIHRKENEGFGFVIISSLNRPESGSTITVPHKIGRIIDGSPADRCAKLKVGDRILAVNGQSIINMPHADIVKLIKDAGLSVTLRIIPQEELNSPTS

MAGI3_2, Q5TCQ9 = molecular target: MAGI3_2, Q5TCQ9
Chain of MAGI3_2, Q5TCQ9 (Q5TCQ9 398-503): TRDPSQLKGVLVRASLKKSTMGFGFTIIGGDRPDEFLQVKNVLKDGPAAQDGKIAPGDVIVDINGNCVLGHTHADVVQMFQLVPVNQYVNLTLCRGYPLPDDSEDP

PARD3_3, Q8TEW0 = molecular target: PARD3_3, Q8TEW0
Chain of PARD3_3, Q8TEW0 (Q8TEW0 582-685): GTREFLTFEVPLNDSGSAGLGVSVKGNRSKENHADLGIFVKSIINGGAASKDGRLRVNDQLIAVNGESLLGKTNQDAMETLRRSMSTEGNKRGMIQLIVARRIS

GRASP, Q7Z6J2 = molecular target: GRASP, Q7Z6J2
Chain of GRASP, Q7Z6J2 (Q7Z6J2 96-193): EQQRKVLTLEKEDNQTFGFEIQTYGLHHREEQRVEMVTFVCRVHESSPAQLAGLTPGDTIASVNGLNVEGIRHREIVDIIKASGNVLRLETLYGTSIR

MAGI1_1, Q96QZ7 = molecular target: MAGI1_1, Q96QZ7
Chain of MAGI1_1, Q96QZ7 (Q96QZ7 1-106): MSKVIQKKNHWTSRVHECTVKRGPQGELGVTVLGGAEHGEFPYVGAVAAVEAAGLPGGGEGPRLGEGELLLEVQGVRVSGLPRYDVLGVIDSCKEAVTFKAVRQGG

DLG5_1, Q8TDM6 = molecular target: DLG5_1, Q8TDM6
Chain of DLG5_1, Q8TDM6 (Q8TDM6 617-713): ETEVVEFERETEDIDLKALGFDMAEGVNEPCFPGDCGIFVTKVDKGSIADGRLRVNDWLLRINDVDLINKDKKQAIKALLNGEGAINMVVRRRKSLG

NHERF2_2, Q15599 = molecular target: NHERF2_2, Q15599
Chain of NHERF2_2, Q15599 (Q15599 142-238): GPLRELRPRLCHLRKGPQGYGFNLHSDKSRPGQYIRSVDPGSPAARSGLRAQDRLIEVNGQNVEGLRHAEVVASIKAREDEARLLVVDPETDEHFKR

DLG2_2, Q15700 = molecular target: DLG2_2, Q15700
Chain of DLG2_2, Q15700 (Q15700 189-283): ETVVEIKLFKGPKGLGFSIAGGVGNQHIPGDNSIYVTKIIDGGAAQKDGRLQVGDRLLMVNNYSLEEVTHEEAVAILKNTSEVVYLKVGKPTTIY

TX1BP3, O14907 = molecular target: T2, TX1BP3, O14907
T2 sequence (O14907 10-122, limits assumed, looked up): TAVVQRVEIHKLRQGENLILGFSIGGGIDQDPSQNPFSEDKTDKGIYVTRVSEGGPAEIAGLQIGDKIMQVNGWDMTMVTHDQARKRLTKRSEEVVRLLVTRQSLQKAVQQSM

GRIP2_3, Q9C0E4 = molecular target: GRIP2_3, Q9C0E4
Chain of GRIP2_3, Q9C0E4 (Q9C0E4 238-339): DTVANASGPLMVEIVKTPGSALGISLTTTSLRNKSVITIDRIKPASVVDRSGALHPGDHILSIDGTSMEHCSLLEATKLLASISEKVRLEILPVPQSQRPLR

GOPC, Q9HD26 = molecular target: GOPC, Q9HD26
PDZRN3_1, Q9UPQ7 = molecular target: T3, PDZRN3_1, Q9UPQ7
T3 sequence (Q9UPQ7 244-349, limits assumed, looked up): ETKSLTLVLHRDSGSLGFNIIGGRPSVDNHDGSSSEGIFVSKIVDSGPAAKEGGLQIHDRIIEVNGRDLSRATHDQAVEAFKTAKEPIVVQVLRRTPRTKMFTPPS

Inadl_3, Q8NI35 = molecular target: Inadl_3, Q8NI35
Chain of Inadl_3, Q8NI35 (Q8NI35 359-469): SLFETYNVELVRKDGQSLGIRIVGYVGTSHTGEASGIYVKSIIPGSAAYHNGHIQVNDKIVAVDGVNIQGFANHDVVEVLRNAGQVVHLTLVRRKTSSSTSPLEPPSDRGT

MPP2, Q14168 = molecular target: T4, MPP2, Q14168
T4 sequence (Q14168 180-250, limits assumed, looked up): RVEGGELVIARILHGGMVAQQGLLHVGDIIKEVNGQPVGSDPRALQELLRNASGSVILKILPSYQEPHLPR

SNTB1, Q13884 = molecular target: T5, SNTB1, Q13884
T5 sequence (Q13884 107-205, limits assumed, looked up): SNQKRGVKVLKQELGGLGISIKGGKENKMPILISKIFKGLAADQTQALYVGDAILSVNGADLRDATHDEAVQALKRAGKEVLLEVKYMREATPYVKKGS

LAP2, Q96RT1 = molecular target: LAP2, Q96RT1
Chain of LAP2, Q96RT1 (Q96RT1 other isoform, or with tags, fused parts or gaps): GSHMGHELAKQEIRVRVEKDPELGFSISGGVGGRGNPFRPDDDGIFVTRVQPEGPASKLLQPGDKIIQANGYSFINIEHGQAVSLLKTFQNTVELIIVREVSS

HTRA4, P83105 = molecular target: T6, HTRA4, P83105
T6 sequence (P83105 378-476, limits assumed, looked up): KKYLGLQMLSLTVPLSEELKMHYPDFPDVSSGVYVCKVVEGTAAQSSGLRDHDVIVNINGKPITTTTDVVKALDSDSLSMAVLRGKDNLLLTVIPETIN

IL16_4, Q14005 = molecular target: IL16_4, Q14005
Chain of IL16_4, Q14005 (Q14005 1229-1329): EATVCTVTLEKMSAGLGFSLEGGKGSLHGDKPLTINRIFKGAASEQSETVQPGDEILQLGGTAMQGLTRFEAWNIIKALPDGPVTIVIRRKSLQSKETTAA

FRMPD2_2, Q68DX3 = molecular target: FRMPD2_2, Q68DX3
Chain of FRMPD2_2, Q68DX3 (Q68DX3 944-1038): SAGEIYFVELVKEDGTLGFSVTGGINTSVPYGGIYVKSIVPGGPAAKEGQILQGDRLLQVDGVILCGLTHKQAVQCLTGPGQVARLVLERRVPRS

PARD3B_1, Q8TEW8 = molecular target: T7, PARD3B_1, Q8TEW8
T7 sequence (Q8TEW8 196-299, limits assumed, looked up): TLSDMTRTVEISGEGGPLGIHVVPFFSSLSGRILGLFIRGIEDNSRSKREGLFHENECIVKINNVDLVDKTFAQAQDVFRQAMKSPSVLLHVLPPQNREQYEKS

Inadl_4, Q8NI35 = molecular target: Inadl_4, Q8NI35
Chain of Inadl_4, Q8NI35 (Q8NI35 547-651): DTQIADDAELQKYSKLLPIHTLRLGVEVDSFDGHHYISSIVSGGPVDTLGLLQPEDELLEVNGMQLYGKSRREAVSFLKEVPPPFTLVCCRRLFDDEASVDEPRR

HTRA2, O43464 = molecular target: HTRA2, O43464
Chain of HTRA2, O43464 (O43464 355-458): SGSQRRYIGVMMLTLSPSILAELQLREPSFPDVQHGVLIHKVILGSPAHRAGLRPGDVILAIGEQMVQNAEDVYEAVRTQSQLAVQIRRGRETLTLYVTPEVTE

DFNB31_2, Q9P202 = molecular target: T8, DFNB31_2, Q9P202
T8 sequence (Q9P202 274-371, limits assumed, looked up): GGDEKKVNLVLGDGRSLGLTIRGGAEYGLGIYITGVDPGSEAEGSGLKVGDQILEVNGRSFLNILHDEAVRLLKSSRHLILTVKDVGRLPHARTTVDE

SHANK1, Q9Y566 = molecular target: T9, SHANK1, Q9Y566
T9 sequence (Q9Y566 658-767, limits assumed, looked up): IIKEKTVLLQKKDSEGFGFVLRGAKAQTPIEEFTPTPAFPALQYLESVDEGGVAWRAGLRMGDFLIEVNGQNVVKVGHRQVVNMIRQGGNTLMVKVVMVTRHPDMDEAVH

ARHGAP21, Q5T5U3 = molecular target: T10, ARHGAP21, Q5T5U3
T10 sequence (Q5T5U3 45-169, limits assumed, looked up): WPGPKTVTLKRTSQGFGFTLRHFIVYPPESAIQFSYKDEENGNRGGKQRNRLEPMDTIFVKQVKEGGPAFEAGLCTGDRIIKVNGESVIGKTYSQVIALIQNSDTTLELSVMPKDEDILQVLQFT

[1] = plain residues with an end cap or a label only (N-terminal biotin on a linker: ado-ado)
[2] = plain residues with an end cap or a label only (N-terminal biotin on a linker: (peg)3)

ARGPPRESEV [FAM110D, Q8TAY7]
pKd (GRIP1_2, Q9Y3R0; [1]): below the threshold
pKd (MAGI2_5, Q86UL8; [1]): 3.9
pKd (MAGI3_2, Q5TCQ9; [1]): 5.03
pKd (PARD3_3, Q8TEW0; [1]): below the threshold
pKd (GRASP, Q7Z6J2; [1]): below the threshold
pKd (MAGI1_1, Q96QZ7; [1]): below the threshold
pKd (DLG5_1, Q8TDM6; [1]): below the threshold
pKd (NHERF2_2, Q15599; [1]): below the threshold
pKd (DLG2_2, Q15700; [1]): 5.3
pKd (TX1BP3, O14907; [1]): 5.24
pKd (GRIP2_3, Q9C0E4; [1]): below the threshold
pKd (GOPC, Q9HD26; [1]): 3.51
pKd (PDZRN3_1, Q9UPQ7; [1]): 5.07
pKd (Inadl_3, Q8NI35; [1]): below the threshold
pKd (MPP2, Q14168; [1]): below the threshold
pKd (SNTB1, Q13884; [1]): 5.12
pKd (LAP2, Q96RT1; [1]): 4.37
pKd (HTRA4, P83105; [1]): 3.87
pKd (IL16_4, Q14005; [1]): below the threshold
pKd (FRMPD2_2, Q68DX3; [1]): 3.5
pKd (PARD3B_1, Q8TEW8; [1]): below the threshold
pKd (Inadl_4, Q8NI35; [1]): below the threshold
pKd (HTRA2, O43464; [1]): below the threshold
pKd (DFNB31_2, Q9P202; [1]): 3.57
pKd (SHANK1, Q9Y566; [1]): below the threshold
pKd (ARHGAP21, Q5T5U3; [1]): 3.8

NTLNRKTTPV [CACNG8, Q8WXS5]
pKd (GRIP1_2, Q9Y3R0; [1]): 3.61
pKd (MAGI2_5, Q86UL8; [1]): below the threshold
pKd (MAGI3_2, Q5TCQ9; [1]): 5.05
pKd (PARD3_3, Q8TEW0; [1]): below the threshold
pKd (GRASP, Q7Z6J2; [1]): 4.22
pKd (MAGI1_1, Q96QZ7; [1]): below the threshold
pKd (DLG5_1, Q8TDM6; [1]): below the threshold
pKd (NHERF2_2, Q15599; [1]): below the threshold
pKd (DLG2_2, Q15700; [1]): 4.61
pKd (TX1BP3, O14907; [1]): 5.01
pKd (GRIP2_3, Q9C0E4; [1]): below the threshold
pKd (GOPC, Q9HD26; [1]): 3.72
pKd (PDZRN3_1, Q9UPQ7; [1]): 3.97
pKd (Inadl_3, Q8NI35; [1]): below the threshold
pKd (MPP2, Q14168; [1]): below the threshold
pKd (SNTB1, Q13884; [1]): 4.07
pKd (LAP2, Q96RT1; [1]): below the threshold
pKd (HTRA4, P83105; [1]): 3.94
pKd (IL16_4, Q14005; [1]): 3.59
pKd (FRMPD2_2, Q68DX3; [1]): 3.85
pKd (PARD3B_1, Q8TEW8; [1]): below the threshold
pKd (Inadl_4, Q8NI35; [1]): below the threshold
pKd (HTRA2, O43464; [1]): below the threshold
pKd (DFNB31_2, Q9P202; [1]): below the threshold
pKd (SHANK1, Q9Y566; [1]): below the threshold
pKd (ARHGAP21, Q5T5U3; [1]): 3.86

RRRRSQSRESQC [HBV-HBc, P03193]
pKd (GRIP1_2, Q9Y3R0; [2]): below the threshold
pKd (MAGI2_5, Q86UL8; [2]): 3.89
pKd (MAGI3_2, Q5TCQ9; [2]): 4.64
pKd (PARD3_3, Q8TEW0; [2]): below the threshold
pKd (GRASP, Q7Z6J2; [2]): below the threshold
pKd (MAGI1_1, Q96QZ7; [2]): below the threshold
pKd (DLG5_1, Q8TDM6; [2]): below the threshold
pKd (NHERF2_2, Q15599; [2]): below the threshold
pKd (DLG2_2, Q15700; [2]): 4.22
pKd (TX1BP3, O14907; [2]): 4.14
pKd (GRIP2_3, Q9C0E4; [2]): below the threshold
pKd (GOPC, Q9HD26; [2]): below the threshold
pKd (PDZRN3_1, Q9UPQ7; [2]): 3.89
pKd (Inadl_3, Q8NI35; [2]): below the threshold
pKd (MPP2, Q14168; [2]): below the threshold
pKd (SNTB1, Q13884; [2]): 4.78
pKd (LAP2, Q96RT1; [2]): below the threshold
pKd (HTRA4, P83105; [2]): below the threshold
pKd (IL16_4, Q14005; [2]): 3.68
pKd (FRMPD2_2, Q68DX3; [2]): below the threshold
pKd (PARD3B_1, Q8TEW8; [2]): below the threshold
pKd (Inadl_4, Q8NI35; [2]): below the threshold
pKd (HTRA2, O43464; [2]): below the threshold
pKd (DFNB31_2, Q9P202; [2]): below the threshold
pKd (SHANK1, Q9Y566; [2]): below the threshold
pKd (ARHGAP21, Q5T5U3; [2]): below the threshold
